Three substances from US20220363738A1 can be followed below.

The target in the experiment is purified fragment of human Calnexin containing Amino acid 1-481 fused to human FC region (FC-CNX) (human) (UniProt P27824). The experiment is described as follows: ELISA, coat CNX-Fc (figure title), antibody 1 ug/ml, HRP secondary, OD450 normalised to BSA. Background: An ELISA detects its analyte on a solid surface through an enzyme-linked reagent.
purified fragment of human Calnexin containing Amino acid 1-481 fused to human FC region (FC-CNX) (human), sequence (P27824 21-481 limits assumed, form in doubt): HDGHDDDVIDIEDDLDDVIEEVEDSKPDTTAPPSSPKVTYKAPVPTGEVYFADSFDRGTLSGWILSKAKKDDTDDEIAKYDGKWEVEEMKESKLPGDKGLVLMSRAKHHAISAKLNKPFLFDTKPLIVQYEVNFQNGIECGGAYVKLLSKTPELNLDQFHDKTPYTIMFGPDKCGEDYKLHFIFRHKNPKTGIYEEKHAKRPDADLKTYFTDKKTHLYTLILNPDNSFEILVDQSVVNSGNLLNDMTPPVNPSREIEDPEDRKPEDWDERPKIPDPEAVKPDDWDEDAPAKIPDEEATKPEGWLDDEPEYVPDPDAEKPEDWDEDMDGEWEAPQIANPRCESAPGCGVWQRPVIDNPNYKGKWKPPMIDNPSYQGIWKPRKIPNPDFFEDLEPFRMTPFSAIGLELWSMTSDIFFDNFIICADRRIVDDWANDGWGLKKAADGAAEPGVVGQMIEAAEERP
Turning to CRT ab92516 (antibody), the OD450 (Normalised to BSA) was found to be 0.9.
For CNX ab10286 (antibody) the value was 4.79; for ctrl hIgG (antibody), 0.51.
